Assay [1] deals with T1, human CD112R, full length, expressed on cells (YTS-hCD112R; Jurkat-NFAT-luc-hCD112R) (human, UniProt Q6DKI7 42-326).
T1 construct: whole, on cells; also called PVRIG; YTS-hCD112R cells
T1 sequence (looked up): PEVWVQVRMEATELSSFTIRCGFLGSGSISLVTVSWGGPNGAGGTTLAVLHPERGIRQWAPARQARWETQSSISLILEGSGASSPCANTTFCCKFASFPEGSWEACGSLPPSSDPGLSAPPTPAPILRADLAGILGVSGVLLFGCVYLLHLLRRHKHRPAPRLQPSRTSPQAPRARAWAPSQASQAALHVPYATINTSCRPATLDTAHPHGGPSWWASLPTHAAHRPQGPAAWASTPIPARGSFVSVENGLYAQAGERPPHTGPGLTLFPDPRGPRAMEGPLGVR
The assay can be described thus: FACS competition on YTS-hCD112R cells against hCD112-ECD-hFc, ligand detected with goat anti-human IgG-FITC. The source says: (§1) Then cells were washed three times with PBS containing 0.5% BSA. Ligands binding to cells were detected by adding goat anti-human IgG-FITC Ab (Pierce-Thermo Fisher Scientific).

The target in assay [2] is T2, hCD112R-ECD-His6-Avi (human, UniProt Q6DKI7 42-172, biotinylated (Avi tag) in the ELISA assays).
T2 construct: range 42-172; Expressed in HEK 293F cells; Analyte in SPR, and captured on streptavidin in ELISA; also called biotinylated hCD112R-ECD-His6-Avi; not shown: C-terminal His6-Avi tag
T2 sequence (looked up): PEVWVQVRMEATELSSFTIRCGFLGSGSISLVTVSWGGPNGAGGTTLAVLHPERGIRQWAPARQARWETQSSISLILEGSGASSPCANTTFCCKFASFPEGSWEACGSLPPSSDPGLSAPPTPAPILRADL
In words: SPR (Biacore T200), multi-cycle; 733-mIgG2a captured on Protein A/G, hCD112R-ECD-His6-Avi injected; 1:1 Langmuir. As for the experimental part:
(§2) Protein A/G (Thermo Fisher) was covalently attached to surfaces of a CM5 sensor chip using an amine coupling kit (GE Healthcare). […] Binding kinetics were evaluated using a 1:1 Langmuir binding model. The association rates (ka), dissociation rates (kd), and affinity constants (KD) were calculated using Biacore T200 evaluation software.
Background: SPR reads the build-up and loss of mass on a sensor chip optically.

The target of assay [3] is T2, hCD112R-ECD-His6-Avi. In words: SPR (Biacore T200), multi-cycle, 733-mIgG2a captured by Protein A/G, hCD112R-ECD-His6-Avi as analyte, 1:1 Langmuir model. As for the experimental part: as §2
For assay [4], the target named is T2, hCD112R-ECD-His6-Avi. In words: SPR (Biacore T200), multi-cycle; 733-mIgG2a captured on Protein A/G, hCD112R-ECD-His6-Avi injected; 1:1 Langmuir (the text prints the rounded 0.2 nM). The method, then: as §2
The target of assay [5] is T1, human CD112R, full length, expressed on …. The assay can be described thus: FACS-based competition on YTS-hCD112R cells, competitor hCD112-ECD-hFc.
Text: as §1

Assay [6] addresses T3, hCD112-ECD-hFc (extracellular domain of hCD112 fused to the Fc domain of human IgG1) (human, UniProt Q92692 32-360).
T3 construct: extracellular domain; also called hCD112 ligand; not shown: Fc domain of human IgG1
T3 sequence (looked up): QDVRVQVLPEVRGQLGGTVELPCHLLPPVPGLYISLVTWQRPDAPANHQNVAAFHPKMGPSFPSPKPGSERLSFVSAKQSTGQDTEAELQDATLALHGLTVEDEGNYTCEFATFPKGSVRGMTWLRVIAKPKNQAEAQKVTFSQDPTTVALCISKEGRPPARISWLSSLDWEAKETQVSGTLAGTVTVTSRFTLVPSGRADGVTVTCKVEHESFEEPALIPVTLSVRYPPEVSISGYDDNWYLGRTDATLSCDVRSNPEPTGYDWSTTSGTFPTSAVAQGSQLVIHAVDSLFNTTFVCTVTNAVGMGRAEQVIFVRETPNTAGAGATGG
In words: SPR (Biacore T200), single injection; hCD112R-ECD-mFc variant captured on anti-mFc Ab, hCD112-ECD-hFc injected. As for the experimental part:
(§3) Kinetic analyses of the bindings of WT or mutated hCD112R-ECD-mFc proteins to H733 and hCD112-ECD were performed on a Biacore T200 instrument (Biacore, GE Healthcare). For the single-cycle SPR analysis, anti-mFc Ab (Thermo Fisher) was covalently attached to surfaces of a CM5 sensor chip using an amine coupling kit (GE Healthcare). WT or mutated hCD112R-ECD mFc fusion proteins were captured on the chip and H733-hIgG4 or hCD112-ECD-hFc were then injected. For the multi-cycle SPR analysis, anti-hFc Ab (Thermo Fisher) was covalently attached to surfaces of a CM5 sensor chip using an amine coupling kit (GE Healthcare). H733-hIgG4 or hCD112-ECD-hFc protein was captured on the chip and 2-fold serially diluted WT or mutated hCD112R-ECD-mFc proteins (3.125-100 nM) were then injected. Binding kinetics were evaluated using a 1:1 Langmuir binding model. The association rates (ka), dissociation rates (kd), and affinity constants (KD) were calculated using Biacore T200 evaluation software.

In assay [7] the target is T3, hCD112-ECD-hFc (extracellular domain of …). The assay can be described thus: SPR (Biacore T200), multi-cycle; hCD112-ECD-hFc captured on anti-hFc Ab, hCD112R-ECD-mFc variant injected (3.125-100 nM); 1:1 Langmuir [Cont') C]. The method, then: as §3
The target is the same in assay [8]. The assay can be described thus: SPR (Biacore T200), multi-cycle; hCD112-ECD-hFc captured on anti-hFc Ab, hCD112R-ECD-mFc WT injected (3.125-100 nM); 1:1 Langmuir [Cont') C]. The method, then: as §3
For assay [9] the target is unchanged. The assay can be described thus: SPR (Biacore T200), multi-cycle; hCD112-ECD-hFc captured on anti-hFc Ab, hCD112R-ECD-mFc variant injected [Cont') C]. The method, then:
as §3

Assay [10] deals with human CD112R, full length, expressed on cells (YTS-hCD112R; Jurkat-NFAT-luc-hCD112R) (human) (UniProt Q6DKI7). In words: cell-based or functional assay.

Substitutions are numbered along the chain they refer to. Numbers in names are those of the source.

B1: anti-hCD112R mAb 733 (733-mIgG2a) (antibody, V domains shown)
VH: QVQLQQSGAELVRPGTSVKVSCKASGYAFTNYLIEWLKQRPGQGLEWIGVINPGHGFTNYNEKFKGKATLTADKSSSTAYMQLSSLTSDDSAVYFCARGEWDWYFDVWGAGTTVTVSS
VL: DIVMTQSQKFMSTSVGDRVSITCKASQNVGTAVAWYQQKPGQSPKLLIYSTSNRYTGVPDRFTGSGSGTDFTLTISNLQSEDLADYFCQQCSSYPFTFGSGTKLEIK
notes: VH and VL were cloned onto the constant regions of mouse IgG2a heavy and light chains (full-length mIgG2a, made in HEK 293F)
The term koff denotes the first-order rate constant of dissociation. Lower therefore signals a long-lived complex. The term kon denotes the rate constant with which the complex forms. Low values mean slow association, high ones fast association. As usually defined, the Kd is the free concentration of one partner at which half of the binding sites on the other are occupied at equilibrium, for simple one-to-one binding. Read a high Kd as a looser complex. One may read the IC50 as the point on the concentration scale where inhibition reaches its midpoint. Low readings indicate inhibition by little substance, high ones a need for much substance. For the molecule B1, in assay [1], the “IC50 (read off the curve)” value is ~2 µg/mL. This molecule also came in with a koff in [2] of 0.000888 s⁻¹. Further, in [2], the association rate constant (kon) was found to be 4.49e+06 M⁻¹ s⁻¹. The Kd in assay [3] was 0.2 nM; in assay [4], 0.198 nM. Moreover, the IC50 in assay [5] is 0.29 µg/mL.

B2: S67P (Fc fusion, human, UniProt Q6DKI7 42-172, looked up)
Fc fusion chain: T2 sequence (looked up) with S26P
notes: extracellular domain, amino acids 42-172; also called hCD112R-ECD-mFc S67P variant
As for B2, in assay [6], the binding result is “binds”.

B3: E94A (Fc fusion, human, UniProt Q6DKI7 42-172, looked up)
Fc fusion chain: T2 sequence (looked up) with E53A
notes: extracellular domain, amino acids 42-172; alanine-scanning variant; also called hCD112R-ECD-mFc E94A variant
In assay [7], B3 displayed an equilibrium dissociation constant (Kd) of 112 nM, a koff of 0.0126 s⁻¹ and a kon of 112000 M⁻¹ s⁻¹.

B4: hCD112R-ECD-mFc WT (Fc fusion, human, UniProt Q6DKI7 42-172, looked up)
chain: T2 sequence (looked up)
notes: range 42-172; also called WT hCD112R; wildtype (WT) hCD112R protein; not shown: Fc domain of mouse IgG2a
Turning to B4, in assay [8], the dissociation constant (Kd) was found to be 64.3 nM, the koff came to 0.00514 s⁻¹ and the on-rate constant (kon) came out at 80000 M⁻¹ s⁻¹.

B5: L72A (Fc fusion, human, UniProt Q6DKI7 42-172, looked up)
Fc fusion chain: T2 sequence (looked up) with L31A
notes: extracellular domain, amino acids 42-172; alanine-scanning variant; also called hCD112R-ECD-mFc L72A variant
In the case of B5, the binding result in [9] is given as “no binding”.

B6: H92A (Fc fusion, human, UniProt Q6DKI7 42-172, looked up)
Fc fusion chain: T2 sequence (looked up) with H51A
notes: extracellular domain, amino acids 42-172; alanine-scanning variant; also called hCD112R-ECD-mFc H92A variant
On to B6, for which, in [7], the Kd turned out to be 72.1 nM, the dissociation rate constant (koff) was 0.00532 s⁻¹ and the kon is 73700 M⁻¹ s⁻¹.

B7: COM701 (humanized anti-hCD112R Ab developed by the Compugen Company, hIgG4) (antibody, from another filing, V domains shown)
VH: QVQLVQSGAEVKKPGASVKVSCKASGYTFTDYNINWVRQAPGQGLEWMGYIYPYIGGSGYAQKFQGRVTMTRDTSTSTVYMELSSLRSEDTAVYYCAREDKTARNAMDYWGQGTLVTVSS
VL: DIQMTQSPSSLSASVGDRVTITCRVSENIYSNLAWYQQKPGKAPKLLIYEATNLAEGVPSRFSGSGSGTDFTLTISSLQPEDFATYYCQHFWGTPYTFGQGTKLEIK
The molecule B7 registered an EC50 of luciferase production, Jurkat-NFAT-luc-hCD112R reporter cells with CHO-OKT3scFv hCD112 cells in assay [10] of 0.69 µg/mL.
